These results are taken from a protein production outcome set (Wang et al. 2014).

A short description of the data set: label from the status in PepcDB records.
In the case of “MLQAGTKKFLREYGSTCAPLFLALGVCLICCLPAACPKENFIDENAISVSRVPVITGMLGELHMDTRISQYTRVVRGRRSVGSESIAVYVNAAFESSVVLANHLIYVLREKENMACDTNFYFFNDTSKDWPIPDSFVRAAIVINVTSFHTNNLCFNVFGANGMQPNQDLFNLAVAIAEKWRFNIDVLCQNPYISFSTSRPIYEHYFLALQTALVAPLRYQPWYKMRSRGISLLAISTEKSERRTKSSYGYNMAAAHEQLIATLSYLHERFHHSTSVWIPLSVDQYVEYDVIQFATILFVASLLSTCYSIYEVEGFSFSPCAALVSATGLAALVSTLNFGTAGFFVSSGVLTVGLGAFSWDMSWGAINAVVLCLLIILQPVAGLVMGFGATLQLQFIHVRCRKWHVLLIGAILSWIVLVALTEVMKAKLFDTETTAGVYFSFFLYPNALWISSRLIRSTLGA”, the protein production result is reported as “failed”.
On to “MLQGKVSVIVPAYNAARLLERCVRSITGQTYPALEVIVVDDGSKDDTGKIADQLAAEDSRIRVVHKTNGGVSAARNDALKLVEGEWITFVDSDDYLEPDFLRSLLDGEVADLVIGGYHTVGANEIPSANYPTDTAHSPEAIKRALEARLTDMTFLCPWGKLFRTSLVRSLRLIFNTEMKVGEDVVFVWSYLAHCSSLAFKQGQGYDYYTEPGADFKYALDETVSLQTIERILGVLDGLKRNFGMDTEHARCHVLNYYIWLFKLYVNRNYLLRDLARMKNFFYYPLILDYYKTYRRTSKDKLLVYLLLKLRLSGVLYLMIKLYYLEHHHHHH”, for which the protein production result was “not failed”.
Turning to “MLQLTRVSRLMNIHCGALMNLKQQYQTSLITDALLHSLQTHSVCTTPSETIDSALNSDGMDRQWMSFFYLPELNSTTVNKIKSILSSFTEVGYIEIDQQTHHLAIYHDGPITPIEKNLEKQGIDVVFQQTQANYIPEPIDWKQIKKRHQILSWLFSINLIMLMVTFFTGLIASSTALIALALIIMSDVMIYAMTLYGIHEKQIGLYKFTRVGLYLQISLSLLLILAVIFQSVLQHQPLAQLIILVAALAFFTMLINMYLLIQTQQERPDLLNFRQWFSFYDVMFSFAVIVAGICCLLFDSNWPDITITTLMVFFLLDRSRRVFKKKTSFVVQ”, the protein production entry is given as “failed”.
With “MLRGILWDMDGTLVDSEGIWAQATFAMSTEMGRRLTAAQQRETVGSSFNFTVSLCASNAGIELDSEAKNYWQSFMSHYVTEKFDSSLLPNPGIKEVLDSCRNAEIPMAIATNTIRSIANHSIGAVGIEYFKATVCGDEVANPKPAPDVYLKGAQALGVPPEGCIVFEDSKSGMLGGLAAGCIVISVVDHLNNQPLPEGVVPLSRLHGSADFRGVSAEEIMQWYATLSPNAQ” the entry was “failed”; with “MLRGVAALVVYKGKPALAEEKGGRLELTLEGGARQRVRPKDVLFLHPGPASLDLKVPEGEEEAAWELLEGQTVSLRELAELVYGAYTPEAALGAYLLAQKGERFVLEGEGVRARTREELLALQEAERKRAERERAFQEALKRLKEGSPAPEDRPLLAEVEALARGERKESPVLRALNLPETPEAAHAFLLRLGLWQRENPHPRRLGLPLQPPDLPVPPLPEEDRVDLTHLPAFAIDDEGSQDPDDAVFAEKVEGGFRLFVHVADVAALVPPKSPLDEEALRRGANLYLPEGTVPMLPPAVTEALGLGLREVSPALTFELWVSEEGELLEERVYPSWVRVTRLTYREALGVEALRPLEALAEAFRAKRLAAGALEIALPEVKVRVEGEEVRITPLPPYPSRVWVREAMLLAGYAAAHLAVREGLPFPFATQEAPARRVEGEGLAAMWEQRKALKRAQLKAVPAPHKGLGLPLYAQVTSPLRRYLDLVAHQQLRAWLKGERPLSQAEVLERVGAAEAVADLVREAERKSKLHWTLLHLEAKGYEGPGVLVERRGGQGVFLLPELGLTAQVALPKALPLNAEARLRFLEADLPALEARFALV”, “failed”; with “MLRHIVLLILLSSEVRGVCNRIPQGASGPRSPVDDNFKILIDGNPETYVPEHQYNVSLSCPINMKFVSFTLVVEAEDPSAAFGGQDMTGHFELLGVGDTRFSTSCENMVENTNTNAKIYIAVSWIAPRNPDSGCVLIKAGVVQHRDVWFLDDGFLTKRICPEEIDELNSLTPPLETCCACDEAKYEIVLERKWARNTHWKDFPSEDWRTRLGEVIGASHSHSYRYWAYGGRASKGMKELAEHGATRTLENEIRENTQNGEVRTIIKAPGIPYRPKTFGTTLANARLDPVHHQISLAAKIDPSPDWILGVAGLELCLSNCTWLERKSSDEPQVPPDVVRRITSSYPSDHRSPFYDDTGAPMKPLATLYLTRKKLYIRECEEVLVPQEGPLECAVHPWNEWTNCSTRCGQGYSHRQRSFKNPNLAANFNCDRRLEEFRQCQGTQCGAAEEELEGEEPGLGMENPPSSGSMAECQLTNWGEWSPCTKTCGRGSSTRTRDYYNPQARQRCLSVMRIPLEETRECIGSDCGGTIPDNGELDGFPEPDVFGETDHGGYMGKTTSWNSKQEHSSLGSGNQAWNRKPYNSWKDKSLSNPRDNAQESPNLPFDQIENPQRPAYNPSDNMGGYDKGFPPTNSYSNDKLVGNRPGYNDFNSDYNNKDAYNDYTTPSFTSRTPFGSRYPNQQETVEGNTNDINGNYNVVQDYCFEKPYASTLPCFAKPVVESNYWFYDHEDHECKIFTTDNCDQNRNRFRTLTACEGTCLQPQINMERSENDAMDLYGRRSYDQKQTRDHISKQEVDPMINQKIGPMTYRQQEVDPMEKPVKQVILENPCRRPGADTTHPDAVGMAAEQIKAFKSPKLEENKY”, “failed”.
In the case of “MLRKNILAYYGANFLLIIAQSLPHAILTPLLLSKGLSLSEILLVQTFFSFCVLVAEYPSGVLADLMSRKNLFLVSNAFLIASFSFVLFFDSFIFMLLAWGLYGLYSACSSGTIEASLITDIKENKKDLSKFLAKNNQITYLGMIIGSSLGSFLYLKVHAMLYIVGIFLIMLCVLTIIFYFKEKEGDFKSQKSLKLLKEQVKGSLKELKDNPKLKILLVGHLITPVFFMSHFQMWQAYFLKQGVKEQYLFVFYIAFQVISILIHFLKASSYSQKIALSSLVVLLGVSPLLLSNIPYCFIGVYALMVAFFTYMSYCLNYQFSKFVSKNNISSLSSLLSSCVRVVSVLILSLSSLELRYFSPLTIITMHFALTLIILFFFLYKAKPFDE”, the protein production entry was “failed”.
For “MLRRIVALAAVAAGGMMLSKTFRKSRDSGYTSSVENFIEVNVPVSTAYNQWTQFEEFPRFMKGVREVQQIDDTHLHWRAEIAGKEEEWDAEITEQVPDQRIAWHSTNGAKNSGVVSFYGISDSKTRVVLKMDYGPRTFLEGLGDALGAVKARTSEDLRCFKEFLESRGKETGAWRGSVGQH”, the protein production result is “failed”.
Under “MLRSLLVPLFSNAASSTDDHGITLPQYQVFINFRGDELRNSFVGFLVKAMRLEKINVFTDEVELRGTNLNYLFRRIEESRVAVAIFSERYTESCWCLDELVKMKEQMEQGKLVVVPVFYRLNATACKRFMGAFGDNLRNLEWEYRSEPERIQKWKEALSSVFSNIGLTSDIRRYNLINKNMDHTSEFLYIVLILNFFSEISDMTGLTTSYQFLLMMKSNLISYDIYIYPTKFCVNVFIGV” stands “failed”.
For “MLRSTVIVTAHRRKAFIKDAIESVMENSLKPTEIIVVKNFKDYQIDSFLETYHVKNIYTDDETLGGKISLGIYQSSGDILFFLDDDDLFSKDKIREVIYKFSKYDIGFYHNAQEVIHNKLTGSNLSTDNQRFMYYTSIDTRRLKELLYKFKAGFNGSSIVISRDLAMRCVDLLKNVNISVDTFLLFCAVENNLPIMIDFRKLTYYRIIMSQNSNTEVNDKLFKMLYEDALYFKQIFSSKALRDFIEMSIIQHDFLYKIISKKEISKRDALISMVKMLRYSLKYPNKWNFFLQGLSLLSVFSAEKSRSLYLKKVRSNSMLSILEHHHHHH”, the protein production result is recorded as “not failed”.
Under “MLSEQKEIAMQVSGMTCAACAARIEKGLKRMPGVTDANVNLATETVNVIYDPAETGTAAIQEKIEKLGYHVVTEKAEFDIEGMTCAACANRIEKRLNKIEGVANAPVNFALETVTVEYNPKEASVSDLKEAVDKLGYKLKLKGEQDS” stands “not failed”; under “MLSFLSARQSGLEDPLRLRRAQSTRRVLGLELNKDRDVERIHGSGVNTLDIEPVEGRYMLSGGSDGVVVLYDLENASRQPHYTCKAVCSVGRSHPDVHKYSVETVQWYPHDTGMFTSSSFDKTLKVWDTNTLQAADVFNFEETVYSHHMSPAATKHCLVAVGTRGPKVQLCDLKSGSCSHILQGHRQEILAVSWSPRHDYILATASADSRVKLWDVRRASGCLLTLDQHNGKKSQAAESANTAHNGKVNGLCFTSDGLHLLTIGTDNRMRLWNSSSGDNTLVNYGKVCNDSRKGLQFAVSCGCSSEFVFVPHGSTIAVYAVHSGERLAMLKGHYKSVDCCVFQPNFQELYSGSRDCNILAWVPPSYEPVPDDDDEAPAKSQLNPAFADAWSSSDEDG”, “failed”; under “MLSFVVMSFLIFVIVMVNEHKAHLSVIQKMILAVVNGSITIILSIIVFYIFYPQNISLFLITAGILTVFVFLYGLLLFLFGFTHRELSYLSKYDKYKFLCKFTIEMFSSLTNHAFLTISAIVLYQIQHPKPTIDFIVMIGMITISVIVVMLLFLKTYSIIIKQLKKLENN”, “failed”.
With “MLSIIEQIKQGQLWDFHGGIHPEENKTISNQAAIQQAGIPSQLVLPLKQHIGGKGDILVSVGDVVLKGQPLTQGNIAMCVPVHAPTSGRITAIEPRTVAHPSGLTDLCIVIESDGEDRWVEDRTPIDDFSSVDPIDLIERIRQSGISGMGGAGFPTSRKIQSGIGKAEMLIINAAECEPYITADDRLMREHAEEIIDGIKILQHILTPKVCIIAIEDNKPEAVKALNQAVTDHDNIIIRVIPTKYPSGGSRQLTKIITGQEVPANGRSTDIGVIVQNVGTVFAIKRAICDAEPLIERIVTLTGNSMSTPGNLWVRLGTCIDYLMELVGYKADKKHPRIIMGGSLMGFTLPHQQVPITKITNCIITPDKKELPLYNHEMACIRCSSCADACPTSLLPQQLYWYSKSEDYDKCNEYNLNDCIECGACAYVCPSEIPLVQYYRQAKSEIYSRKQDALAAERAKLRFEEKNARLERDKLERENKFKQAAENRRKEMKTENKGGDDAIAAAIARVKAQKAAQESGVAAPKPAVAAAIARAKAKQAEAAKSETSVPDNSEMAKLREERKQQARERKAKLAEETTATDSDKSEKKDAVAAAIARAKARKAAQAEEKTETPVASEEKNQNTEGSADPKKAAVAAAIARAKARKAAQAEEKTETPVTSEEKNQNTEGSADPKKAAVAAAIARAKARKAAQAEEKTETPVASEEKNQNTEGSADPKKAAVAAAIARAKARKAAQAEEKTETPVTSEEKNQNTEGSADPKKAAVAAAIARAKARKATQAEEKTETPVTSEEKNQNTEESADPKKAAVAAAIARAKARKAAQENNKKEE” the entry was “failed”.
